{
  "source": "patent US20220288169A1",
  "about": "“COMPOSITIONS AND METHODS FOR THE TREATMENT AND PREVENTION OF HYPOGLYCEMIC COMPLICATIONS” (The Board of Supervisors of Louisiana State University and …, priority 2019, published 2022)",
  "key": {"[1]": {"system": "male Sprague Dawley rats exposed to 3dRH (rat model of HAAF)", "assay_type": "in vivo", "procedure": "For Experiment 5, a total of 21 rats were subjected to a three day recurrent hypoglycemia (3dRH) paradigm adapted from previous studies (44). […] On each of the three days of the paradigm, all rats received an IP injection of either PBS or leptin at ≈1.5 h prior to lights off. […] On the fourth day, all three cohorts of rats were then subjected to a hypoglycemic ITT for determination of hypoglycemia-induced epinephrine, glucagon, and corticosterone secretion. Leptin levels were also assayed in each group at the conclusion of the ITT. […] For mice, trunk blood was collected following CO2 euthanasia. […] Louis, Mo.). […] Rat leptin levels were determined by […], MilliporeSigma, St. Louis, Mo.). […] Methods: In experiment one, 3 groups of mice (two CR groups and one ad-lib fed control group) received either twice daily leptin (0.5-1 μg/g, IP) or PBS. In experiment two, 3 groups of rats (two 3dRH and one control) received daily leptin or PBS injections (0.3-0.7 mg/kg, IP)."}, "[2]": {"system": "male C57BL/6J mice exposed to 60% caloric restriction (CR mice)", "assay_type": "in vivo, mouse", "procedure": "In order to overcome differences in baseline blood glucose levels between groups, a variable dose of insulin (IP) was used to produce equivalent exposure to hypoglycemia (A). […] Data were analyzed via one or two way ANOVA. Group differences were determined via Bonferroni's multiple comparison test with significance levels as follows: *- p<0.05; n=7-8/group. A total of 149 mice were subjected to the severe caloric restriction and refeeding paradigm across four separate experiments. The following procedures were identical across all four experiments. Animals were randomly assigned to one of two groups: Mice exposed to severe caloric restriction for six days (CR mice) or ad libitum fed mice (Ad-lib mice). […] Following a five-day acclimation period to wire-bottomed cages (Days 0-4), food intake was monitored daily in each mouse for six days prior to initiation of caloric restriction, and each mouse's average daily food intake was determined (Days 5-10). […] Body weight and free-living blood glucose were measured daily immediately prior to feeding. […] During the refeeding period, food intake, free-living blood glucose, and body weight continued to be measured daily at 1.5 h before lights off in both CR and Ad-lib mice up to the terminal day of the experiments. […] Rat leptin levels were determined by […], MilliporeSigma, St. Louis, Mo.). […]"}, "[3]": {"system": "rats exposed to a single bout of hypoglycemia or 3dRH", "settings": "cited from earlier work"}, "starved rats": {"system": "starved rats", "settings": "acute leptin infusion during starvation, cited from earlier work"}, "[4]": {"settings": "acute ICV leptin in 3dRH rats, first 40 min of 90 min hypoglycemic challenge, relative to 3dRH rats not treated with leptin"}, "[5]": {"settings": "acute ICV leptin infusion, rats exposed to a single bout of hypoglycemia"}},
  "note": "Values joined by “and” are separate entries in the source; they are usually repeats but may differ in a detail not shown here. Identical values can stand only once. “Also recorded” adds a separate entry of the source. Like-named read-outs stand apart in the source and are kept apart here.",
  "data": [
    {"molecule": "leptin (protein, UniProt P50596 22-167, looked up, hormone secreted by adipocytes) Leptin: VPIHKVQDDTKTLIKTIVTRINDISHTQSVSARQRVTGLDFIPGLHPILSLSKMDQTLAVYQQILTSLPSQNVLQIAHDLENLRDLLHLLAFSKSCSLPQTRGLQKPESLDGVLEASLYSTEVVALSRLQGSLQDILQQLDLSPEC", "values": [
      {"measurement": "hypoglycemia-induced glucagon levels", "setting": "[1]; 3dRH paradigm with leptin", "result": "not affected"},
      {"measurement": "hypoglycemia-induced glucagon levels", "setting": "[1]; 3dRH+Leptin rats, 60 min of ITT, mean (SD)", "result": 34, "unit": "pmol/L"},
      {"measurement": "increase of epinephrine levels relative to untreated 3dRH rats", "setting": "[1]; leptin concurrent with antecedent hypoglycemia", "result": 50, "unit": "%"},
      {"measurement": "leptin levels at the 60-minute time point relative to controls", "setting": "[1]; rat, in vivo", "result": "significantly increased"},
      {"measurement": "serum leptin levels at the conclusion of the ITT", "setting": "[1]; rat, in vivo", "result": 5.1, "unit": "ng/mL"},
      {"measurement": "hypoglycemia-induced glucagon levels", "setting": "[2]; CR+Leptin mice, twice daily IP leptin 0.5-1 μg/g during CR, 60 min of ITT, Day 1 of refeeding, mean (SD)", "result": "91.7 pmol/L and 78.1 pmol/L"},
      {"measurement": "serum glucagon levels in response to the ITT", "setting": "[2]; Example 7, leptin-treated CR mice, 0.5-1 μg/g IP twice daily, after 16 h refeeding and 6 h fast", "result": "78.0 ± 16.8", "unit": "pg/mL"},
      {"measurement": "epinephrine levels increased by", "setting": "[3]; [4]", "result": 25, "unit": "%"},
      {"measurement": "glucagon levels increased by", "setting": "[3]; [4]", "result": 45, "unit": "%"},
      {"measurement": "epinephrine levels increased by", "setting": "[3]; [5]", "result": 19, "unit": "%"},
      {"measurement": "glucagon levels decreased by", "setting": "[3]; [5]", "result": 50, "unit": "%"},
      {"measurement": "rescue of counter-regulation by acute leptin", "setting": "[3]; acute leptin administration, 3dRH rats", "result": "did not restore counter-regulation; also recorded: does not reverse the effects of 3dRH; also recorded: did not correct the deficit in epinephrine release; also recorded: does not rescue the effect"},
      {"measurement": "epinephrine levels lower than untreated rats exposed to a single bout of hypoglycemia", "setting": "[3]; leptin treated 3dRH rats", "result": 60, "unit": "%"},
      {"measurement": "effect on blood glucose", "setting": "starved rats; physiological doses", "result": "reducing blood glucose"},
      {"measurement": "effect on blood glucose", "setting": "starved rats; supraphysiological doses", "result": "increasing blood glucose"}
    ]}
  ]
}
